These are literature values, as cited in paper PMC12376249.

The term Kd denotes the free concentration of one partner at which half of the binding sites on the other are occupied at equilibrium, for simple one-to-one binding.

This data set deals with Histone H1 (Homo sapiens) (UniProt P07305). The experiment in a line: single-molecule FRET.
Sequence of UniProt P07305 (P07305 2-194): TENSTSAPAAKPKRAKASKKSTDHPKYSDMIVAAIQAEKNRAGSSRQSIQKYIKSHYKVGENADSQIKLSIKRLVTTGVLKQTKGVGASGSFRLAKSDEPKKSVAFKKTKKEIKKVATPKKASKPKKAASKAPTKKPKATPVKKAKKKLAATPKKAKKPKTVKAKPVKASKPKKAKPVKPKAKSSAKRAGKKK

As to Prothymosin alpha (from UniProt P06454), the dissociation constant Kd was 50 pM.
